Columns and labels:
重组人TNF-α [1] = target: T1, 重组人TNF-α (human, UniProt P01375 77-233); experiment: competition ELISA: inhibition of binding of 1 μg/ml TNF-α to coated L929 TNF receptor extract
重组人TNF-α [2] = target: T1, 重组人TNF-α; experiment: cell-based or functional assay

T1 sequence (P01375 77-233 limits assumed): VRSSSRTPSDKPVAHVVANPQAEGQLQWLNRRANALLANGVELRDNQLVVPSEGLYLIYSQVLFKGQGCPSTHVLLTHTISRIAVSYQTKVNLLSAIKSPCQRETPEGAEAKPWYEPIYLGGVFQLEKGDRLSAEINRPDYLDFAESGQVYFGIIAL

IC50 (重组人TNF-α [1]) [nM] | MTT法: 抑制TNF-α对L929细胞的细胞毒作用, 50%抑制的浓度(IC50) (重组人TNF-α [2]) [nM] | MTT法: 抑制TNF-α对L929细胞的细胞毒作用, 50%的抑制浓度(IC50) (重组人TNF-α [2]) [nM] | Binder
3200 | 40 | – | 抗TNF-α鼠源单链抗体 TNF-scFv (scFv, part only; not given: C-terminal tail of construct, part only) scFv, part: QIQLVQSGPELKKPGETVKISCKASGYTFTHYGMNWVKQAPGKGLKWMGWINTYTGEPTYADDFKEHFAFSLETSASTVFLQINNLKNEDTATYFCARERGDAMDYWGQGTSVTVSSTSGGGGSGGGGSGGGGSSRSIVMTQTPKFLLVSAGDRVTITCTASQSVSNDVVWYQQKPGQSPKMLMYSAFNRYTGVPDRFTGRGYGTDFTFTISSVQAEDLAVYFCQQDYNSPRTFGGGTKLEIK
~400 | – | 2.5 | 抗TNF-α基因工程四价单链抗体 TNF-TeAb (scFv) QIQLVQSGPELKKPGETVKISCKASGYTFTHYGMNWVKQAPGKGLKWMGWINTYTGEPTYADDFKEHFAFSLETSASTVFLQINNLKNEDTATYFCARERGDAMDYWGQGTSVTVSSTSGGGGSGGGGSGGGGSSRSIVMTQTPKFLLVSAGDRVTITCTASQSVSNDVVWYQQKPGQSPKMLMYSAFNRYTGVPDRFTGRGYGTDFTFTISSVQAEDLAVYFCQQDYNSPRTFGGGTKLEIK

Source: patent publication CN1948343A (BEIJING ANBOTE GENE ENGINEERIN, dated 2007)
